Assay results as given in patent US20250361288A1 (Gilead, published 2025).
Numbering of substitutions follows the chain as printed. Names and notes keep the numbering of the source.

B1: LIGHT-4 (ligand)
chain: DGPAGSWEQLIQERRSHEVNPAAHLTGANSSLTGSGGPLLWETQLGLAFLRGLSYHDGALVVTKAGYYYIYSKVQLGGMGCPLGLASPITHGLYKRTPRYPEELELLVSQQSPCGRATSSSRVWWDSSFLGGVVHLEAGEKVVVRVLDERLVRLLDGTRSYFGAFMV
notes: Printed mutations: V152M, T161P, R228L; Soluble protein carries an N-terminal His tag
B2: LIGHT-6 (ligand)
chain: B1 chain with M79V, P88T, W125Q, L147N, D148G, L155R
notes: Printed mutations: W198Q, L220N, D221G; Soluble protein carries an N-terminal His tag
B3: LIGHT-44 (ligand)
chain: B1 chain with G77R, M79V, L85P, P88T, L147S, L155R
notes: Printed mutations: G150R, L158P, L220S; Soluble protein carries an N-terminal His tag
B4: LIGHT-50 (ligand)
chain: B1 chain with N29R, L47Q, M79V, P88T, H135R, K141E, L155R
notes: Printed mutations: N102R, L120Q, H208R, K214E; Soluble protein carries an N-terminal His tag
B5: LIGHT-49 (ligand)
chain: B1 chain with L32P, Q44R, M79V, P88T, L147Q, L155R
notes: Printed mutations: L105P, Q117R, L220Q; Soluble protein carries an N-terminal His tag
B6: LIGHT-38 (ligand)
chain: B1 chain with M79V, P88T, Q111R, W125Q, L155R
notes: Printed mutations: Q184R, W198Q; Soluble protein carries an N-terminal His tag
B7: LIGHT-51 (ligand)
chain: B1 chain with A28D, M79V, S87N, P88T, L147S, L155R
notes: Printed mutations: A101D, S160N, L220S; Soluble protein carries an N-terminal His tag
B8: LIGHT-8 (ligand)
chain: B1 chain with G77S, M79V, S87G, P88T, L147S, L155R
notes: Printed mutations: G150S, S160G, L220S; Soluble protein carries an N-terminal His tag
B9: LIGHT-13 (ligand)
chain: B1 chain with S31P, M79V, G84S, P88T, H135Y, L147R, L155R
notes: Printed mutations: S104P, G157S, H208Y, L220R; Soluble protein carries an N-terminal His tag
B10: LIGHT-43 (ligand)
chain: B1 chain with G77R, M79V, S87T, P88T, L147S, L155R
notes: Printed mutations: G150R, S160T, L220S; Soluble protein carries an N-terminal His tag
B11: LIGHT-33 (ligand)
chain: B1 chain with M79V, L147S, L155R
notes: Printed mutations: T161P, L220S; Soluble protein carries an N-terminal His tag
B12: LIGHT-46 (ligand)
chain: B1 chain with L53M, M79V, P88T, K141E, L155R
notes: Printed mutations: L126M, K214E; Soluble protein carries an N-terminal His tag
B13: LIGHT-40 (ligand)
chain: B1 chain with M79V, L83P, P88T, H135Y, L155R
notes: Printed mutations: L156P, H208Y; Soluble protein carries an N-terminal His tag
B14: LIGHT-48 (ligand)
chain: B1 chain with L47P, M79V, P88T, L147R, L155R
notes: Printed mutations: L120P, L220R; Soluble protein carries an N-terminal His tag
B15: LIGHT-9 (ligand)
chain: B1 chain with G77S, M79V, P88G, L147S, L155R
notes: Printed mutations: G150S, T161G, L220S; Soluble protein carries an N-terminal His tag
B16: LIGHT-32 (ligand)
chain: B1 chain with M79V, S87R, P88T, L147S, L155R
notes: Printed mutations: S160R, L220S; Soluble protein carries an N-terminal His tag
B17: LIGHT-11 (ligand)
chain: B1 chain with G77S, M79V, P88T, L147S, L155R
notes: Printed mutations: G150S, L220S; Soluble protein carries an N-terminal His tag
B18: LIGHT-47 (ligand)
chain: B1 chain with L53M, M79V, P88T, A117V, H135Y, L155R
notes: Printed mutations: L126M, A190V, H208Y; Soluble protein carries an N-terminal His tag
B19: LIGHT-17 (ligand)
chain: B1 chain with Q44N, M79V, P88T, H135Y, L155R
notes: Printed mutations: H208Y, Q117N; Soluble protein carries an N-terminal His tag
B20: LIGHT-15 (ligand)
chain: B1 chain with Q44E, M79V, P88T, E102K, K141E, L154T, L155R
notes: Printed mutations: Q117E, E175K, K214E, L227T; Soluble protein carries an N-terminal His tag
B21: LIGHT-16 (ligand)
chain: B1 chain with Q44H, M79V, L85M, P88T, E140D, L155R
notes: Printed mutations: Q117H, L158M, E213D; Soluble protein carries an N-terminal His tag
B22: LIGHT-30 (ligand)
chain: B1 chain with M79V, S87R, P88N, L147S, L155R
notes: Printed mutations: S160R, T161N, L220S; Soluble protein carries an N-terminal His tag
B23: LIGHT-41 (ligand)
chain: B1 chain with G77R, M79V, S87G, P88T, L147S, L155R
notes: Printed mutations: G150R, S160G, L220S; Soluble protein carries an N-terminal His tag
B24: LIGHT-10 (ligand)
chain: B1 chain with G77S, M79V, L147S, L155R
notes: Printed mutations: G150S, T161P, L220S; Soluble protein carries an N-terminal His tag
B25: LIGHT-45 (ligand)
chain: B1 chain with G77S, M79V, S87P, P88S, L147S, R150H, L155R
notes: Printed mutations: G150S, S160P, T161S, L220S, R223H; Soluble protein carries an N-terminal His tag
B26: LIGHT-18 (ligand)
chain: B1 chain with V62I, M79V, L85Q, P88T, K141E, E149K, L155R
notes: Soluble protein carries an N-terminal His tag
B27: LIGHT-19 (ligand)
chain: B1 chain with T63S, M79V, L83P, S87G, P88T, L147M, L155R
notes: as for B26
B28: LIGHT-14 (ligand)
chain: B1 chain with T43S, M79V, L85Q, P88T, L93M, L155R
notes: as for B26

target: T1, human LTβR extracellular domain fused with an Fc fragment at the C-terminus (human, UniProt P36941 31-227); experiment: phage ELISA
T1 construct: extracellular domain; Bought; also called hLTβR; not shown: Fc fragment at the C-terminus
Description: (§1) Individual clones from the fourth selection round were grown in 96-well deep well blocks in 100 μl of 2YT broth supplemented with 50 μg/ml ampicillin at 37° C. and 220 rpm for 5 hours. Then, 5 μl of helper phages were added to each well and incubated at 37° C. for 30 minutes. After centrifuging at 3,000 rpm for 10 minutes, the cells were resuspended and grown overnight in 150 μl/well of 2YT broth supplemented with 50 μg/ml ampicillin and 50 μg/ml kanamycin.
(§2) For the ELISA screening, 96-well ELISA plates were coated with target proteins (1 μg/ml in PBS) at 4° C. overnight and then blocked with 2% BSA for 2 hours at room temperature. The supernatant containing phage particles was added to the plates and incubated at room temperature for 1 hour. After incubation, the plates were washed five times with PBST. HRP (horseradish peroxidase) conjugated anti-M13 antibody (Sino Biological, China) was added to the wells and incubated at room temperature for 1 hour. Following another round of washing five times with PBST, 50 μl of TMB (3,3′, 5,5″-tetramethylbenzidine, #34029, ThemoFisher) was added to each well. After 5 minutes, the reaction was stopped by adding 50 μl stop solution (#C1058, Solarbio, China). The absorbance at 450 nm (OD450) was measured using a plate reader (SpectraMax M5, Molecule Devices). Wells coated with BSA were used as negative controls. Phage clones with an ELISA score ratio (target/BSA)>3 were considered positive clones.

T1 sequence (P36941 31-227): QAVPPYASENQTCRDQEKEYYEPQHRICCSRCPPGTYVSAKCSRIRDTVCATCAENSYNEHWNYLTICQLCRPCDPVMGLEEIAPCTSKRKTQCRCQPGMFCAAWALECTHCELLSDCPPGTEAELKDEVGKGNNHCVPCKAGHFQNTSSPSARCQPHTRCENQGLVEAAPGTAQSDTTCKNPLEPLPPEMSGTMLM

| Binder | binding result |
| --- | --- |
| B1 | binds |
| B2 | binds |
| B3 | binds |
| B4 | binds |
| B5 | binds |
| B6 | binds |
| B7 | binds |
| B8 | binds |
| B9 | binds |
| B10 | binds |

target: T2, mouse LTβR extracellular domain fused with an Fc fragment at the C-terminus (mouse, UniProt P50284 31-223); experiment: phage ELISA
T2 construct: extracellular domain; Bought; also called mLTβR; not shown: Fc fragment at the C-terminus
Description: as §1, §2

T2 sequence (P50284 31-223): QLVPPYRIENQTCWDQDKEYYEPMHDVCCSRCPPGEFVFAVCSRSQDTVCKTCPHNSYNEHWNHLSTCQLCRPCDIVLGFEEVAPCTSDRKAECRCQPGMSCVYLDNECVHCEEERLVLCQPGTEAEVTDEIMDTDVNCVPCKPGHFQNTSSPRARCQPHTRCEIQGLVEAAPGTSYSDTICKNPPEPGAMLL

| Binder | binding result |
| --- | --- |
| B1 | binds |
| B11 | binds |
| B2 | binds |
| B12 | binds |
| B3 | binds |
| B4 | binds |
| B5 | binds |
| B6 | binds |
| B13 | binds |
| B7 | binds |
| B8 | binds |
| B9 | binds |
| B10 | binds |

target: T3, human HVEM extracellular domain fused with an Fc fragment at the C-terminus (human, UniProt Q92956 39-202); experiment: phage ELISA
T3 construct: extracellular domain; Bought; also called hHVEM; not shown: Fc fragment at the C-terminus
T3 sequence (looked up): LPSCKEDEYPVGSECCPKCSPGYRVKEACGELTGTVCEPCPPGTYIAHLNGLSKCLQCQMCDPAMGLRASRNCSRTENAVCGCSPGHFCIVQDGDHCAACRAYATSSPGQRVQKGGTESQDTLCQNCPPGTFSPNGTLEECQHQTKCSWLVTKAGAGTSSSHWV
Description: as §1, §2

| Binder | binding result |
| --- | --- |
| B1 | no binding |
| B2 | no binding |
| B14 | binds |
| B15 | no binding |
| B16 | binds |
| B3 | binds |
| B4 | binds |
| B5 | binds |
| B6 | binds |
| B17 | no binding |
| B7 | binds |
| B8 | no binding |
| B18 | binds |
| B9 | binds |
| B10 | binds |

target: T4, mouse HVEM extracellular domain fused with an Fc fragment at the C-terminus (mouse, UniProt Q80WM9 39-206, limits assumed); experiment: phage ELISA
T4 construct: extracellular domain; Bought; also called mHVEM; not shown: Fc fragment at the C-terminus
T4 sequence (looked up): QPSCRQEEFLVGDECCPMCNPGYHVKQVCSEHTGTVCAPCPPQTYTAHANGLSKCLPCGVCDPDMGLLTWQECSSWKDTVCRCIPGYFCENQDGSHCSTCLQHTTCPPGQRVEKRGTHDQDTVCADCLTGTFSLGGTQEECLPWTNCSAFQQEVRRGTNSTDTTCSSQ
Description: as §1, §2

| Binder | binding result |
| --- | --- |
| B1 | binds |
| B11 | binds |
| B2 | binds |
| B14 | binds |
| B15 | binds |
| B19 | binds |
| B16 | binds |
| B12 | binds |
| B20 | binds |
| B3 | binds |
| B4 | binds |
| B5 | binds |
| B6 | binds |
| B17 | binds |
| B21 | binds |
| B22 | binds |
| B13 | binds |
| B7 | binds |
| B23 | binds |
| B8 | binds |
| B18 | binds |
| B24 | binds |
| B25 | binds |
| B9 | binds |
| B10 | binds |

target: T1, human LTβR extracellular domain fused …; experiment: ELISA on coated target-Fc
Description: (§3) Nunc MaxiSorp 96-well plates (Thermofisher) were coated with target proteins (1 μg/ml), and then blocked with 2% BSA-PBS buffer for one hour. Serial dilutions of the LIGHT muteins were added with a maximum concentration of 200 ng/ml. The plates were incubated for one hour, washed four times with PBST, and then incubated with mouse anti-His tag antibody (#105327, Sino Biological) for 1 hour. The plates were further incubated with HRP-conjugated goat anti-mouse secondary antibody (#SSA006, Sino Biological) before being washed three times with PBST and treated with TMB substrate (#34029, ThermoFisher). The plates were read at 450 nm on a SpectraMax M5 microplate reader (Molecule Devices). The ELISA results were analyzed using GraphPad Prism 9.0 software and the EC50s (half maximal effective concentration) were summarized in Table 5-1 and Table 5-2.

| Binder | EC50 |
| --- | --- |
| B11 | 0.0612 µg/mL |
| B14 | 0.756 µg/mL |
| B15 | 0.0282 µg/mL |
| B19 | 0.0805 µg/mL |
| B26 | 0.0894 µg/mL |
| B16 | 0.247 µg/mL |
| B12 | 0.0675 µg/mL |
| B20 | 0.0748 µg/mL |
| B17 | 0.0395 µg/mL |
| B21 | 0.16 µg/mL |
| B13 | 0.0959 µg/mL |
| B23 | 0.108 µg/mL |
| B18 | 0.228 µg/mL |
| B24 | 0.0441 µg/mL |
| B25 | 0.0362 µg/mL |

target: T2, mouse LTβR extracellular domain fused …; experiment: ELISA on coated target-Fc
Description: as §3

| Binder | EC50 | binding result |
| --- | --- | --- |
| B14 | 0.42 µg/mL | – |
| B27 | 0.468 µg/mL | – |
| B15 | 0.0224 µg/mL | – |
| B19 | 0.0442 µg/mL | – |
| B26 | 0.0413 µg/mL | – |
| B16 | 0.0632 µg/mL | – |
| B20 | 0.139 µg/mL | – |
| B28 | 0.0249 µg/mL | – |
| B17 | 0.0233 µg/mL | – |
| B21 | – | binds |
| B23 | 0.0311 µg/mL | – |
| B18 | 0.0706 µg/mL | – |
| B24 | 0.0804 µg/mL | – |
| B25 | 0.0264 µg/mL | – |

target: T3, human HVEM extracellular domain fused …; experiment: ELISA on coated target-Fc
Description: as §3

| Binder | EC50 |
| --- | --- |
| B11 | 0.0256 µg/mL |
| B27 | 0.0681 µg/mL |
| B19 | 0.0511 µg/mL |
| B26 | 0.0447 µg/mL |
| B12 | 0.0978 µg/mL |
| B20 | 0.0597 µg/mL |
| B28 | 0.03 µg/mL |
| B21 | 0.0738 µg/mL |
| B22 | 0.157 µg/mL |
| B13 | 0.0503 µg/mL |
| B24 | 0.0467 µg/mL |
